Measured values: the DeepSol protein solubility set

Test: soluble on expression in E. coli; label from the status in PepcDB or PDB records
In the case of “NADAQTKLQIIDLKTRLRLALPNLPGGDLRGVNFSADASQLVFYINSDTSPSNLYVHKLGSTGVKRLTNTGNPNILEDNLVEGEVVRFKSFDGLDIPGILYKPKQAEFNKVPALVFIHGGPGGQSRKGYSALVQHLVNNGYAIFKVNNRGSSGYGKTFFHLDDKKHGDHDLKDVVYNKYYLQSLDWVDKDRIGVIGGSYGGYLTMAAMAFTDEFQAGVNIFGVTNWVRTLESIPPYWEAFRKSLYDELGDPNTDKERLHNISPVFFGHQIKKPVLVVQGKNDPRVLKIESDEMVDSIRSGGTYVDYLVFDDEGHGFSKKANRIEASNKYLNFFKTQL”, the “soluble on expression in E. coli” value is reported as “not soluble”. With “MFISVLDLFKIGIGPSSSHTMGPMTAANVFRDHVDQLVSQTPDDLNYRVYCVLKGSLAFTGRGHATDRAVALGLHGHSPVSLAGEDVNALTAKLWATDTLQLTSGREIGFNPEDDIVFDKSDPLPQHPNGMIFYLLDEEGKKILSETFFSIGGGFICTLAEINQ” the “soluble on expression in E. coli” value was “not soluble”. For “MGSDKIHHHHHHMGVMKTPGVYIVEKNAFPNSVVEVATAVPAFIGFTQKAINGNKSLLNKPWRITSMAEFRRYYGEAPEPEFEIAEKPADSLEDAAIVMGDKSYVISQSNTKYLLYYSMMLFFQNGGGPCYIVSVGNYTNDVEAAKLLAGIPTLLKEQEPTMLAIPEAILLAEDDCISVQQASLAHCGGVMRNRVAILDVWNGHLDRQDPSGDCIESFRSKLGINYLDFSSAYYPWLHTTIVQDSDLSFKNIANTDVLIGLLKEEVTASFTDLDGLTDDQLASPSNKLRVAKRDQMLTEVDSLATVAGDAQIVLLNKTLSSMSPLYMSILLDIKGKLNLLPPSACMAGIYTMVDNARGVWKAPANVSLNAVVSPAVNISHDEQEDLNVTTQGKSINAIRTFIGEGTLVWGARTLDGNSLDWRYISVRRTMIMLEESIRLAAKAYVFEPNTANTWTTLNSMITNFLTGIWKRGGLAGSVPADAFSVSVGLGSTMTSEDILEGILRITVLVAVTRPAEFIEITFQQQMQKS”, the “soluble on expression in E. coli” value was “not soluble”. In the case of “MSLAHKFDPSKIKKLDDPSRLELFDPEKVLKEFGLKEGMTVLDVGTGAGFYLPYLSKMVGEKGKVYAIDVQEEMVNYAWEKVNKLGLKNVEVLKSEENKIPLPDNTVDFIFMAFTFHELSEPLKFLEELKRVAKPFAYLAIIDWKKEERDKGPPPEEVYSEWEVGLILEDAGIRVGRVVEVGKYCFGVYAMIVKQEEENPLMNVPFKIPPGEGHHHHHH”, the “soluble on expression in E. coli” value is reported as “soluble”. In the case of “GMVKDKNDVGPKTVAILGAGGKMGARITRKIHDSAHHLAAIEIAPEGRDRLQGMGIPLTDGDGWIDEADVVVLALPDNIIEKVAEDIVPRVRPGTIVLILDAAAPYAGVMPERADITYFIGHPCHPPLFNDETDPAARTDYHGGIAKQAIVCALMQGPEEHYAIGADICETMWSPVTRTHRVTTEQLAILEPGLSEMVAMPFVETMVHAVDECADRYGIDRQAALDFMIGHLNVEIAMWFGYSPKVPSDAALRLMEFAKDIVVKEDWREALNPAKVKQAAELIAGK”, the “soluble on expression in E. coli” value is reported as “soluble”. In the case of “MDLFDTPLAPLQVLDDAEGGVRYWPQLLAPAVAQAAFAALRDGADWQRHQRTMYDRVVDVPRLLASYRLDAPLPPGLPLQLLLAAVQAQLPAPYNAVGLNLYRDGRDSVAMHHDKLHTLLAPHPIALLSLGTPRRMQLRAKQGATRAITLELAPGSLLAMSHASQLTHEHGIPKTTRALGERISVVFRVRPPARMAAGQHGPHWEALTQTDLEHHHHHH”, the “soluble on expression in E. coli” value is reported as “soluble”. For “MDSIYRDAGYDVLKVSAKTGEGIDELVDYLEGFICILAGPSGVGKSSILSRLTGEELRTQEVSEKTERGRHTTTGVRLIPFGKGSFVGDTPGFSKVEATMFVKPREVRNYFREFLRYQCKYPDCTHTNEPGCAVKEAVKNGEISCERYKSYLKIIKVYLEEIKELCREDLEHHHHHH”, the “soluble on expression in E. coli” value was “not soluble”. With “MGSDKIHHHHHHMADFPTRPDEVDAVWLEARLADAGVLDGARIVKVEWQSIGTGQVGDTARFSLTYDRPAPLAPASVAAKFPSSDPTSRQTAASFSLYKREVNFYRDVAGLIDMRVPRAYAALLDDNGCDFVLLFEDLGPCEAGNQLSGCGIDQARDALRQAAALHAATLDHPVLDSEWLQTDPQASAMLRALYPQAQAIFRERYADALDPALMAICDELDECADLWFDRKPARRSFLHGDFRLDNMLFGIRDGQEPIALVDWQTAAVGCGLTDIGYFMGCGIGSGLRRPHEAALLDLYCAEMTRRGVAMTRDEIMDDYRIGALHGVSTAVFSSAFVVRTERGDANFLSMARGACELALEHNSLGALKRRMENA” the “soluble on expression in E. coli” value was “not soluble”. In the case of “MDIPVFTMVGEWKCKEGEWKFEPKEGIFGRCVRVQETMTYTDFVRTLREAFSLKSTEINPIISYWMLGEMSVLIDTKHPPVYIDSQMGLETFFFGSWWVSFSQLVRLFQ”, the “soluble on expression in E. coli” value is reported as “not soluble”. With “TREFNDLCRPHMEALAILCGETVNLVIRVGTQARFLSSAESTGMLRVGDRQGQVLDAELTAGGRILLAELPRETLEQLYLRPVDLADDDREWGDRRLPADEFERFWRELSAARAVGFAVNVQQTEEGVAAFGVAIRNRARTAVGALTVAVPITRFRQHSQGPLVSQIKNAIRELEVDIADLEP” the “soluble on expression in E. coli” value was “not soluble”. For “SNAMAWVVNKQSTQEELANRFRALVEANEILQIPGAHDAMAALVARNTGFLALYLSGAAYTASKGLPDLGIVTSTEVAERARDLVRATDLPVLVDIDTGFGGVLNVARTAVEMVEAKVAAVQIEDQQLPKKCGHLNGKKLVTTEELVQKIKAIKEVAPSLYIVARTDARGVEGLDEAIERANAYVKAGADAIFPEALQSEEEFRLFNSKVNAPLLANMTEFGKTPYYSAEEFANMGFQMVIYPVTSLRVAAKAYENVFTLIKETGSQKDALSNMQTRSELYETISYHDFEELDTGIAKTVLSEDQ”, the “soluble on expression in E. coli” value was “soluble”. For “MPPTPEVGLPLWLLAELTYRCPLQCPYCSNPLDFAAQGQELSTEQWFKVMAEAREMGAAQIGFSGGEPLVRQDLAQLIAEARRLGYYTNLITSGIGLTEARIADFKKAGLDHIQISFQASDEQVNNLLAGSKKAFAQKLEMARAVKAHGYPMVLNFVTHRHNIDKIDRIIELCIALEADFVELATCQFYGWAHLNRLGLLPTRAQLERAERITNEYRDKLKAEGNPCKLIFVTPDYYEERPKACMNGWGNLFLTITPDGTALPCH”, the “soluble on expression in E. coli” value was “not soluble”. For “MAHHHHHHMWRCGMMPRTRVLRFVWKQSYRDLLPPAAASAYVCGQLRWCDSCDGGGVPAVLESPSDAAGVYSFFSQSTASAVRALRDVTRSAHSLSITDRRLALDGLAVLLRENADLLASADALVTGMCLRDARRSLDAALNFILFCEQRLRTPTAAATTAVIMKDAASVDAEEVLHSFGCGGANICGDSHSVSTLTGKSSVALCVTAANYPLQWGMETVATALLRGSAAVWLPSLDTPLSALWLMHLLHRSNKNVVADSRGAVNIILCRADDVVAAFSRQQESGLSIVGLKNGFRDHQLSRNHQAHGIPSAISHGSISCITRWYHRVMKPSLAVVGSGHHHTETMAVRLDASRVAALICQHAFHGNGRMLYALHIAFVPKQDVLPVLQSVVQYVRNLRLGHSLDPSVNMGPLPGAAHMAAMKETVEAAVCCGDFKLQHVCGGFDVAMPAGFFCLPCAFYATVANVTPAGTEMSIRVLCETTARLRFGLDRLGGGPFVVVCGYDPPQQREALEVVLREKEQYVLHYW”, the “soluble on expression in E. coli” value was “not soluble”. With “AIREFNTKEKVFNEFTAVFDVLNHLPAFAKLHLANSMSVRYANTLGISQRNAEVFANRGTSGIDGVISTAYGYALKTSQLVTIITGDLAFFYDRNAFWNNYKPSNLRVVLLNNHGGGIFRMIDGPSALPELDELFETKQTLSARYLATEHGLEYTLCKNLNGLNQALESFFQPSMFGKILEIETDSVKN” the “soluble on expression in E. coli” value was “not soluble”. For “MRKMKTERAKEILVQLLKIPSPSGREDRVALYIMEFLHKLNYDVHIESDGEIIDLVVNPGAELFFEVHMDTIDPRAEPFVRGNIVYGTGASDIKGGIASILLMLEQLRKEGKDLNVGIVFVSDEEKGGRGSALFMERYRPKMAVVLEPTDLEVHIAHAGNIEAYFEVDGKEAHGACPESGINAIEQTFEMLQKLKDLEPFKAKGKYFDPHIGIQELICENPYYLIPALCKGRLEARLLPDQEVEDILDLIDPILDEYTVKYEYTEIWDGYELSEDEEIVQIAKSAMDMVGLDEFGAMRSWTDAINFTYNGTKTIVFGPGNLDISHTKQERIDVRDVVKASEFLLAVNEIFGNKS”, the “soluble on expression in E. coli” value was “soluble”.
